The target in experiment [1] is T1, recombinant human NME7AB (human, UniProt Q9Y5B8 92-376).
T1 construct: also called NME-AB; NME7 (in several passages)
T1 sequence: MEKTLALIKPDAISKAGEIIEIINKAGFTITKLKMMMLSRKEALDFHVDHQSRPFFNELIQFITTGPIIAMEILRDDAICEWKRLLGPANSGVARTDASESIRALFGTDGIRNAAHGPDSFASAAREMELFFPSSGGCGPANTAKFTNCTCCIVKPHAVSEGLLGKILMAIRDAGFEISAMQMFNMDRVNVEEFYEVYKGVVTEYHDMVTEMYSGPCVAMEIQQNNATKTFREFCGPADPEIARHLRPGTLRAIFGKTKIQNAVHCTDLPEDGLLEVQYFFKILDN
In words: ELISA, plate coated with recombinant NME7AB (FIG. 24). Here is the method:
The surface of the multi-well plate was coated with a recombinant $NME7AB$. Anti-$NME7AB$ antibodies were separately added to wells. Standard washes were performed and visualized by adding an HRP-conjugated secondary antibody. […] 7 of the 10 new anti-NME7 antibodies bound strongly to NME7$AB$. […] The surface of the multi-well plate was coated with a recombinant NME1-S120G dimers, which are also known to bind to the MUC1* extra cellular domain. Anti-NME7$AB$ antibodies were separately added to wells. Standard washes were performed and visualized by adding an HRP-conjugated secondary antibody.

The target in experiment [2] is T1, recombinant human NME7AB. Put plainly: ELISA sandwich assay, HRP signal (FIG. 1A-1B). The protocol: Example 3—ELISA Assay Showing NME7$AB$ Simultaneously Binds to Two MUC1* Extra Cellular Domain Peptides Results are shown in FIG. 1. The PSMGFR peptide bearing a C-terminal Cysteine (PSMGFR-Cys) was covalently coupled to BSA using Imject Maleimide activated BSA kit (Thermo Fisher). PSMGFR-Cys coupled BSA was diluted to 10 ug/mL in 0.1M carbonate/bicarbonate buffer pH 9.6 and 50 uL was added to each well of a 96 well plate. After overnight incubation at 4° C., the plate was washed twice with PBS-T and a 3% BSA solution was added to block remaining binding site on the well. After 1 h at RT the plate was washed twice with PBS-T and NME7, diluted in PBS-T+1% BSA, was added at different concentrations. After 1h at RT the plate was washed 3× with PBS-T and anti-NM23-H7 (B-9). Santa Cruz. […] After 1 h at RT the plate was washed 3× with PBS-T and binding of NME7 was measured at 415 nm using ABTS solution (Pierce).
After 1 h at RT the plate was washed 3× with PBS-T and His-Tagged PSMGFR peptide (PSMGFR-His) or biotinylated PSMGFR peptide (PSMGFR-biotin), diluted in PBS-T+1% BSA, was added at different concentration. […] After 1 h at RT the plate was washed 3× with PBS-T and binding of PSMGFR peptide to NME7 already bound to another PSMGFR peptide (which could not signal by anti-His antibody or by streptavidin) coupled BSA was measured at 415 nm using a ABTS solution (Pierce).
Background: An ELISA detects its analyte on a solid surface through an enzyme-linked reagent.

B1: anti-NME7 monoclonal antibody 8F9A5A1 (antibody, V domains shown)
VH: IQLVQSGPELKKPGETVKISCKASGYTFTNYGMNWVKQAPGKGLKWMGWINTYTGEPTYVDDFKGRFAFSLETSATTAYLQINNLKNEDTSTYFCARLRGIRPGPLAYWGQGTLVTVSA
VL: EILLTQSPAIIAASPGEKVTITCSASSSVSYMNWYQQKPGSSPKIWIYGISNLASGVPARFSGSGSGTSFSFTINSMEAEDVATYYCQQRSSYPPTFGGGTKLEIKR
notes: Mouse monoclonal
Turning to B1, in the experiment with recombinant human NME7AB [1], the binding result is “binds”.

B2: PSMGFR peptide (MUC1* extra cellular domain peptide) (peptide)
peptide: GTINVHDVETQFNQYKTEAASRYNLTISDVSVSDVPFPFSAQSGA
notes: For the other ELISAs only surface-immobilized peptide is stated; also called MUC1* peptide; FLR
Take B2: in the experiment with recombinant human NME7AB [2], the binding result is recorded as “binds”.

For the origin of these results see patent publication US12415868 (MINERVA BIOTECHNOLOGIES, dated 2025).
